Assays:
Experiment in all cases: cell-based or functional assay
GST-p85 SH3 domain [1] = biological target: T1, GST-p85 SH3 domain (bovine, UniProt P23727 3-79)
[2] = biological target: GST-intersectin I SH3A domain (Xenopus laevis)
[3] = biological target: T2, GST-Actin binding protein 1 (Abp1) SH3 domain (mouse, UniProt Q62418 377-436)
[4] = biological target: T3, GST-endophilin I SH3 domain (mouse, UniProt Q62420 290-349)
[5] = biological target: GST-intersectin I SH3C domain (Xenopus laevis)
[6] = biological target: GST-intersectin I SH3E domain (Xenopus laevis)
[7] = biological target: T4, GST-syndapin I SH3 domain (mouse, UniProt Q61644 382-441)
[8] = biological target: T5, GST-amphiphysin I SH3 domain (human, UniProt P49418 622-695)
T5 sequence (looked up): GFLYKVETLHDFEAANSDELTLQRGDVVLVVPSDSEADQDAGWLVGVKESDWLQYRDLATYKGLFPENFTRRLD

[9] = biological target: T6, GST-amphiphysin II SH3 domain (human, UniProt O00499 520-593)
T6 sequence (looked up): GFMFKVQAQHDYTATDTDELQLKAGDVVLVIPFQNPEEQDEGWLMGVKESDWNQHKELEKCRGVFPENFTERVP

[10] = biological target: T7, GST-Formin Binding Protein 17 (FBP17) SH3 domain (human, UniProt Q96RU3 550-611)
T7 sequence (looked up): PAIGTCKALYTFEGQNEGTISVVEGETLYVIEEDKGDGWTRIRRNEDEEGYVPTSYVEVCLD

GST-cortactin SH3 domain [11] = biological target: T8, GST-cortactin SH3 domain (mouse, UniProt Q60598 488-546)
[12] = biological target: T9, GST-sorting-nexin 9 (SNX9) SH3 domain (human, UniProt Q9Y5X1 1-62)
[13] = biological target: T10, GST-Cdc42 interacting protein 4 (CIP4) SH3 domain (human, UniProt Q15642 540-601)
T10 sequence (looked up): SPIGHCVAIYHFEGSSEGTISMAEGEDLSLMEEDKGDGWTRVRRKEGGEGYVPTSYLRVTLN

GST-p85 SH3 domain [14] = biological target: T1, GST-p85 SH3 domain; remark: listed apart in the source
[15] = biological target: GST-intersectin I SH3A domain (Xenopus laevis); remark: listed apart in the source
[16] = biological target: T2, GST-Actin binding protein 1 (Abp1) SH3 …; remark: listed apart in the source
[17] = biological target: T3, GST-endophilin I SH3 domain; remark: listed apart in the source
[18] = biological target: GST-intersectin I SH3C domain (Xenopus laevis); remark: listed apart in the source
[19] = biological target: GST-intersectin I SH3E domain (Xenopus laevis); remark: listed apart in the source
[20] = biological target: T4, GST-syndapin I SH3 domain; remark: listed apart in the source
[21] = biological target: T5, GST-amphiphysin I SH3 domain; remark: listed apart in the source
[22] = biological target: T6, GST-amphiphysin II SH3 domain; remark: listed apart in the source
[23] = biological target: T7, GST-Formin Binding Protein 17 (FBP17) …; remark: listed apart in the source
GST-cortactin SH3 domain [24] = biological target: T8, GST-cortactin SH3 domain; remark: listed apart in the source
[25] = biological target: T9, GST-sorting-nexin 9 (SNX9) SH3 domain; remark: listed apart in the source
[26] = biological target: T10, GST-Cdc42 interacting protein 4 (CIP4) …; remark: listed apart in the source

T2 sequence (Q62418 377-436): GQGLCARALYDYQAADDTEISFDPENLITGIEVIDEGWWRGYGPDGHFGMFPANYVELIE
T3 sequence (Q62420 290-349): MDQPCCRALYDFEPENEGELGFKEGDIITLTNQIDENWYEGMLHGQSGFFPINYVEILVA
T4 sequence (Q61644 382-441): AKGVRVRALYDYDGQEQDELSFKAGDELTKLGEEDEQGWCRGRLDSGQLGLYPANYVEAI
T9 sequence (Q9Y5X1 1-62): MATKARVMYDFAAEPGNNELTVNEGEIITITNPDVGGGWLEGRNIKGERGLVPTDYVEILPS
T8 sequence (Q60598 488-546): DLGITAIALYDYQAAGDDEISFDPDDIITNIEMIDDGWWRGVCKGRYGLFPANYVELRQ

B1: endogenous sheep brain dynamin I (enzyme)
chain: MGNRGMEDLIPLVNRLQDAFSAIGQNADLDLPQIAVVGGQSAGKSSVLENFVGRDFLPRGSGIVTRRPLVLQLVNATTEYAEFLHCKGKKFTDFEEVRLEIEAETDRVTGTNKGISPVPINLRVYSPHVLNLTLVDLPGMTKVPVGDQPPDIEFQIRDMLMQFVTKENCLILAVSPANSDLANSDALKVAKEVDPQGQRTIGVITKLDLMDEGTDARDVLENKLLPLRRGYIGVVNRSQKDIDGKKDITAALAAERKFFLSHPSYRHLADRMGTPYLQKVLNQQLTNHIRDTLPGLRNKLQSQLLSIEKEVEEYKNFRPDDPARKTKALLQMVQQFAVDFEKRIEGSGDQIDTYELSGGARINRIFHERFPFELVKMEFDEKELRREISYAIKNIHGIRTGLFTPDLAFEATVKKQVQKLKEPSIKCVDMVVSELTATIRKCSEKLQQYPRLREEMERIVTTHIREREGRTKEQVMLLIDIELAYMNTNHEDFIGFANAQQRSNQMNKKKASGNQDEILVIRKGWLTINNIGIMKGGSKEYWFVLTAENLSWYKDDEEKEKKYMLSVDNLKLRDVEKGFMSSKHIFALFNTEQRNVYKDYRQLELACETQEEVDSWKASFLRAGVYPERVGDKEKASETEENGSDSFMHSMDPQLERQVETIRNLVDSYMAIVNKTVRDLMPKTIMHLMINNTKEFIFSELLANLYSCGDQNTLMEESAEQAQRRDEMLRMYHALKEALSIIGDINTTTVSTPMPPPVDDSWLQVQSVPTGRRSPTSSPTPQRRAPAVPPARPGSRGPAPGPPPAGSALGGAPPVPSRPGASPDPFGPPPQVPSRPNRAPPGVPSRSGQASPSRPESPRPPFDL
dynamin GTPase activity stimulated by the GST-SH3 domain (ELIPA, 30 mM NaCl), fold change relative to no SH3 (GST-p85 SH3 domain [1]): 2.24 fold change
dynamin GTPase activity stimulated by the GST-SH3 domain (ELIPA, 30 mM NaCl), fold change relative to no SH3 [2]: 14.7 fold change
dynamin GTPase activity stimulated by the GST-SH3 domain (ELIPA, 30 mM NaCl), fold change relative to no SH3 [3]: 1.03 fold change
dynamin GTPase activity stimulated by the GST-SH3 domain (ELIPA, 30 mM NaCl), fold change relative to no SH3 [4]: 2.82 fold change
dynamin GTPase activity stimulated by the GST-SH3 domain (ELIPA, 30 mM NaCl), fold change relative to no SH3 [5]: 2.1 fold change
dynamin GTPase activity stimulated by the GST-SH3 domain (ELIPA, 30 mM NaCl), fold change relative to no SH3 [6]: 1.83 fold change
dynamin GTPase activity stimulated by the GST-SH3 domain (ELIPA, 30 mM NaCl), fold change relative to no SH3 [7]: 5.9 fold change
dynamin GTPase activity stimulated by the GST-SH3 domain (ELIPA, 30 mM NaCl), fold change relative to no SH3 [8]: 5.32 fold change
dynamin GTPase activity stimulated by the GST-SH3 domain (ELIPA, 30 mM NaCl), fold change relative to no SH3 [9]: 1.09 fold change
dynamin GTPase activity stimulated by the GST-SH3 domain (ELIPA, 30 mM NaCl), fold change relative to no SH3 [10]: 3.97 fold change
dynamin GTPase activity stimulated by the GST-SH3 domain (ELIPA, 30 mM NaCl), fold change relative to no SH3 (GST-cortactin SH3 domain [11]): 5.49 fold change
dynamin GTPase activity stimulated by the GST-SH3 domain (ELIPA, 30 mM NaCl), fold change relative to no SH3 [12]: 5.12 fold change
dynamin GTPase activity stimulated by the GST-SH3 domain (ELIPA, 30 mM NaCl), fold change relative to no SH3 [13]: 0.83 fold change
rate of dynamin GTPase activity stimulated by the GST-SH3 domain (ELIPA, 30 mM NaCl, basal rate subtracted) (GST-p85 SH3 domain [14]): 0.009 μmoles Pi/mg of dyn/min
rate of dynamin GTPase activity stimulated by the GST-SH3 domain (ELIPA, 30 mM NaCl, basal rate subtracted) [15]: 0.101 μmoles Pi/mg of dyn/min
rate of dynamin GTPase activity stimulated by the GST-SH3 domain (ELIPA, 30 mM NaCl, basal rate subtracted) [16]: 0 μmoles Pi/mg of dyn/min
rate of dynamin GTPase activity stimulated by the GST-SH3 domain (ELIPA, 30 mM NaCl, basal rate subtracted) [17]: 0.012 μmoles Pi/mg of dyn/min
rate of dynamin GTPase activity stimulated by the GST-SH3 domain (ELIPA, 30 mM NaCl, basal rate subtracted) [18]: 0.008 μmoles Pi/mg of dyn/min
rate of dynamin GTPase activity stimulated by the GST-SH3 domain (ELIPA, 30 mM NaCl, basal rate subtracted) [19]: 0.005 μmoles Pi/mg of dyn/min
rate of dynamin GTPase activity stimulated by the GST-SH3 domain (ELIPA, 30 mM NaCl, basal rate subtracted) [20]: 0.033 μmoles Pi/mg of dyn/min
rate of dynamin GTPase activity stimulated by the GST-SH3 domain (ELIPA, 30 mM NaCl, basal rate subtracted) [21]: 0.029 μmoles Pi/mg of dyn/min
rate of dynamin GTPase activity stimulated by the GST-SH3 domain (ELIPA, 30 mM NaCl, basal rate subtracted) [22]: 0.001 μmoles Pi/mg of dyn/min
rate of dynamin GTPase activity stimulated by the GST-SH3 domain (ELIPA, 30 mM NaCl, basal rate subtracted) [23]: 0.016 μmoles Pi/mg of dyn/min
rate of dynamin GTPase activity stimulated by the GST-SH3 domain (ELIPA, 30 mM NaCl, basal rate subtracted) (GST-cortactin SH3 domain [24]): 0.031 μmoles Pi/mg of dyn/min
rate of dynamin GTPase activity stimulated by the GST-SH3 domain (ELIPA, 30 mM NaCl, basal rate subtracted) [25]: 0.027 μmoles Pi/mg of dyn/min
rate of dynamin GTPase activity stimulated by the GST-SH3 domain (ELIPA, 30 mM NaCl, basal rate subtracted) [26]: 0 μmoles Pi/mg of dyn/min

Reference: paper PMC4687643, “SH3 Domains Differentially Stimulate Distinct Dynamin I Assembly Modes and G Domain Activity” (PLoS ONE, 2015)
